The source of these data is patent publication US7959916B2, “Negative immunomodulation of immune responses by ERp5” (Fred Hutchinson Cancer Research Center, priority 2007, dated 2011).

Experiment [1] has as its system surface expression of MICA. The experiment is described as follows: MICA surface expression on tumor cell lines (flow cytometry). Conditions: tumor lines exposed to DTNB or PAO at titered non-toxic concentrations. Background: In flow cytometry, cells or beads pass a laser one at a time.
Experiment [2] relates to sMICA shedding by Hela and A375 cells. The experiment is described as follows: sMICA shedding by tumor cell lines (ELISA for sMICA). On the technique in general: In an ELISA, binding on a coated surface is turned into a signal by an enzyme label.
Experiment [3] has as its system Siderocalin and CD94-NKG2A. The experiment can be described thus: ERp5 activity assay on control proteins. In kind it is biochemical. Conditions: Siderocalin (intrachain) and CD94-NKG2A (intrachain and interchain) disulfide bonds.
In experiment [4] the target is T1, MICA (Homo sapiens, UniProt Q29983).
T1 sequence (Q29983 24-203): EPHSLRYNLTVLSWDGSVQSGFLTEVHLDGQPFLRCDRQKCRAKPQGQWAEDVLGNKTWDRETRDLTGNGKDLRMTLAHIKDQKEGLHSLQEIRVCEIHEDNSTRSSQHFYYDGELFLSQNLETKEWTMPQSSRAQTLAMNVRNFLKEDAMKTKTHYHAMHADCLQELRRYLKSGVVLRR
The experiment is described as follows: ERp5 activity assay on MICA substrates (non-reducing SDS-PAGE). In kind it is biochemical. Conditions: isolated α1α2 platform (residues 1-180).

Experiment [5] concerns the target T2, MICA (Homo sapiens, UniProt Q29983).
T2 sequence (Q29983 24-299): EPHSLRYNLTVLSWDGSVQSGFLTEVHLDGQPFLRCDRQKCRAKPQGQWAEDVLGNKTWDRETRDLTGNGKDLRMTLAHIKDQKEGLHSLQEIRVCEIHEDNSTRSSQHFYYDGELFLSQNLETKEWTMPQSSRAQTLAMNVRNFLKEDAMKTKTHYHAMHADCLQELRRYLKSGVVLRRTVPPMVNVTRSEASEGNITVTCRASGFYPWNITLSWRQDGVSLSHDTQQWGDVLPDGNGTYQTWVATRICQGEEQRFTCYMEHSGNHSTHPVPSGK
The description is as above. In kind it is biochemical. Conditions: ectodomain MICA, RT, no reducing agents.

Experiment [6] has as its system monocyte derived dendritic cells (mDC). The experiment is described as follows: Maturation marker expression on monocyte-derived dendritic cells (flow cytometry). The class given is cell-based. Conditions: mDC matured with cytokine cocktail, soluble MICA 10 ng/ml. On the procedure:
Monocytes were enriched from normal peripheral blood mononuclear cells (PBMC) by plastic adherence and cultured under standard conditions in the presence of IL-4 and GM-CSF. Cells were harvested at 6 hour-intervals and stained with fluorescein isothiocyanate (FITC)-anti-CD83 or FITC-HLA-DR followed by saturating phycoerythrin (PE)-MICA tetramer concentrations or polyclonal rabbit anti-ERp5 and PE-goat anti-rabbit Ig. On day 6 of culture with IL-4/GM-CSF, mDC were matured (IL-1β, IL-6, TNFα, and PGE2) and MICA tetramer staining and Erp5 expression monitored for an additional 3 days. MICA tetramer was produced by ectodomain MICA protein expression in transfected 293T cells, protein purification from culture supernatant using Invitrogen technology, and BirA enzymatic biotinylation and conjugation with PE-streptavidin.
mDC were matured using standard cytokine cocktail (Il-1β, IL-6, TNFα, and PGE2) in the additional presence or absence of soluble MICA (10 ng/ml). Mature mDC were harvested after 24 to 48 hours and processed for standard flow cytometry of CD80 and CD83 expression. […] IL-6 contents in culture supernatants were measured by standard ELISA. […] After 72 hours, cells in wells were labeled with [^3H]thymidine for 24 hours and harvested for counting of incorporated radioactivity.

The subject of experiment [7] is mDC and allogeneic T cells. The experiment can be described thus: Mixed-lymphocyte reaction, alloantigen presentation by mDC ([3H]thymidine incorporation). The class given is cell-based. Conditions: MLR, soluble MICA 10 ng/ml, 72 h. Here is the method:
mDC were matured using standard cytokine cocktail (Il-1β, IL-6, TNFα, and PGE2) in the additional presence or absence of soluble MICA (10 ng/ml). Mature mDC were harvested after 24 to 48 hours and processed for standard flow cytometry of CD80 and CD83 expression. For IL-6 secretion assays, 24 hour cytokine-matured mDC were washed, mixed with irradiated C1R-Neo (control), C1R-MICA or C1R-ULBP1 cells at a ratio of 2:1 and plated at 50,000 (experiment 1 and 2) or 200,000 mDC (experiment 3 and 4) per round-bottom 96-well in 200 μl AIM-V media with LPS (10 μg/ml). IL-6 contents in culture supernatants were measured by standard ELISA. The ability of mature mDC to present alloantigen in the presence or absence of soluble MICA was studied using standard mixed-lymphocyte reaction (MLR). Irradiated (3000 Rad) cytokine-matured mDC and allogeneic T cells were plated at various ratios (X-axis of bottom bar graph) with or without soluble MICA (10 ng/ml AIM-V) in round-bottom 96-well plates. After 72 hours, cells in wells were labeled with [^3H]thymidine for 24 hours and harvested for counting of incorporated radioactivity.
On the technique in general: Uptake of a labelled nucleoside into DNA is a usual measure of proliferation.

For experiment [8], the system named is PHA (or anti-CD3)-activated CD4 T cells. The experiment is described as follows: Cytokine production by activated CD4 T cells (17 multiplex cytokine analysis). The class given is cell-based. Conditions: soluble MICA 10 ng/ml, 24 hour supernatants. On the procedure: Total PBMC from healthy donors were cultured for 48 hours with PHA (1 μg/ml) or on solid-phase anti-CD3 (25 ng/ml) and stained for standard three-color flow cytometry using combinations of directly conjugated anti-CD3, -CD4 and -CD8 mAbs followed by anti-ERp5 and PE-goat anti-rabbit Ig. For cytokine analyses, bulk NKG2D^+ and NKG2D^− T cell populations purified by magnetic sorting were plated on solid-phase monoclonal antibodies with or without soluble MICA (10 ng/ml). 24 hour culture supernatants were screened by 17 multiplex cytokine analysis.

The target of experiment [9] is T3, ERp5 (Homo sapiens, UniProt Q15084).
T3 sequence (Q15084 20-440): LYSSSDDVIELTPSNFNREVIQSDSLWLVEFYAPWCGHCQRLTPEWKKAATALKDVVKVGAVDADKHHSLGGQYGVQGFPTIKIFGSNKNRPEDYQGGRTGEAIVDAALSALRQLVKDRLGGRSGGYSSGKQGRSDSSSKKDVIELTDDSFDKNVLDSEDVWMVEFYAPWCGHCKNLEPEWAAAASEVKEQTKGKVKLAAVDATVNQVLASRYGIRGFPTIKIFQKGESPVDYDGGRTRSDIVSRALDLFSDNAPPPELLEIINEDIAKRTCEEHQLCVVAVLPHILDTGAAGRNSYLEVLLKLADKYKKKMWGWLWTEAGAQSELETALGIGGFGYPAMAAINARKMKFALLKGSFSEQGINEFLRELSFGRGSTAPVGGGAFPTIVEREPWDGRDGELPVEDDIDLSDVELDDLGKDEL
The experiment can be described thus: MICA tetramer binding to NKG2D-negative tumor cells (flow cytometry). Conditions: U266, Hela, HCT116, Lovo and A375 cells, competition with unglycosylated protein.

In experiment [10] the test system is ERp5-MICA complexes. The experiment is described as follows: Capturing of ERp5-MICA complexes by co-immunoprecipitation from TCA-treated Hela cells. Conditions: Hela cells grown 16 h with increasing concentrations. In kind it is cell-based. An excerpt: Immunoprecipitations and sMICA cleavage.
Experiment [11] has as its target T4, MICA (Homo sapiens, UniProt Q29983).
T4 sequence (Q29983 210-297): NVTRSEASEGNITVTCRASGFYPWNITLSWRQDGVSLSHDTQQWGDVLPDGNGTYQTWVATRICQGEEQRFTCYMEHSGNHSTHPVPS
The experiment is described as follows: ERp5 activity assay on MICA substrates (non-reducing SDS-PAGE). The class given is biochemical. Conditions: isolated α3 domain (residues 187-274).

With `O=C(O)c1cc(SSc2ccc([N+](=O)[O-])c(C(=O)O)c2)ccc1[N+](=O)[O-]` [DTNB, 5,5-dithiobis-(2-nitrobenzoic acid), reference compound], the “surface expression of MICA” value in experiment [1] is given as “without affecting surface expression of MICA”. In [2] (Hela and A375 cells, 24 h exposure, ELISA, dose-dependent), the “shedding of sMICA” value was “reduce shedding of sMICA”.
For the molecule “ERp5: recombinant ERp5 (residues 1-421 of the mature protein) produced in bacteria”, the “reduction of unrelated proteins” value in experiment [3] is “did not affect”. Besides, the “activity on MICA α1α2 domain” value in [4] is recorded as “no activity”. The “reduction of MICA disulfide bond” value in experiment [5] was “gradual reduction of MICA”.

B1: soluble MICA: soluble form of MHC class I-related chain A, NKG2D ligand binding ERp5 (protein)
chain: EPHSLRYNLTVLSWDGSVQSGFLTEVHLDGQPFLRCDRQKCRAKPQGQWAEDVLGNKTWDRETRDLTGNGKDLRMTLAHIKDQKEGLHSLQEIRVCEIHEDNSTRSSQHFYYDGELFLSQNLETKEWTMPQSSRAQTLAMNVRNFLKEDAMKTKTHYHAMHADCLQELRRYLKSGVVLRRTVPPMVNVTRSEASEGNITVTCRASGFYPWNITLSWRQDGVSLSHDTQQWGDVLPDGNGTYQTWVATRICQGEEQRFTCYMEHSGNHSTHPVPSGK
Take B1: the “expression of DC maturation markers (CD83; CD80)” value in [6] was “diminished”. In addition, the “ability of mDC to present alloantigen and stimulate T cells” value in experiment [7] was “reduced ability to present alloantigen and stimulate T cells”. In addition, the “amounts of IL-1β, IL-17, G-CSF and MCP1” value in [8] (NKG2D-CD4+ T cells) was “increased amounts”; in experiment [8] (activated NKG2D+CD4+ T cells), “vastly increased”.

B2: rMICA: Non-glycosylated recombinant MICA expressed in bacteria (protein)
chain: EPHSLRYNLTVLSWDGSVQSGFLTEVHLDGQPFLRCDRQKCRAKPQGQWAEDVLGNKTWDRETRDLTGNGKDLRMTLAHIKDQKEGLHSLQEIRVCEIHEDNSTRSSQHFYYDGELFLSQNLETKEWTMPQSSRAQTLAMNVRNFLKEDAMKTKTHYHAMHADCLQELRRYLKSGVVLRRTVPPMVNVTRSEASEGNITVTCRASGFYPWNITLSWRQDGVSLSHDTQQWGDVLPDGNGTYQTWVATRICQGEEQRFTCYMEHSGNHSTHPVPSGK
Regarding B2, in [9], the “MICA tetramer binding to NKG2D- tumor cells” value was “inhibited”.

B3: dRNase: Denatured and reduced RNase A, excess substrate shifting ERp5 equilibrium towards the reduced state (protein, UniProt P61823 27-150, looked up)
Ribonuclease pancreatic: KETAAAKFERQHMDSSTSAASSSNYCNQMMKSRNLTKDRCKPVNTFVHESLADVQAVCSQKNVACKNGQTNCYQSYSTMSITDCRETGSSKYPNCAYKTTQANKHIIVACEGNPYVPVHFDASV
modifications: denatured and reduced
notes: Denatured and reduced RNase A, excess substrate shifting ERp5 equilibrium towards the reduced state
As for B3, the “ERp5 co-immunoprecipitating with MICA, emergence of sMICA” value in experiment [10] is “larger amounts of ERp5 co-immunoprecipitating with MICA”. Also, in experiment [2] (Hela and A375 cell cultures treated with dRNase, 16 h), the sMICA shedding entry was “promotes sMICA shedding”.

B4: native RNase: native RNase A used as control for dRNase (protein, UniProt P61823 27-150, looked up)
Ribonuclease pancreatic: KETAAAKFERQHMDSSTSAASSSNYCNQMMKSRNLTKDRCKPVNTFVHESLADVQAVCSQKNVACKNGQTNCYQSYSTMSITDCRETGSSKYPNCAYKTTQANKHIIVACEGNPYVPVHFDASV
Turning to B4, the “ERp5 co-immunoprecipitating with MICA, emergence of sMICA” value in experiment [10] is recorded as “None of those biochemical changes were observed”.

B5: C36S: C36S mutant of ERp5 fragment 1-118 (protein)
chain: LYSSSDDVIELTPSNFNREVIQSDSLWLVEFYAPWSGHCQRLTPEWKKAATALKDVVKVGAVDADKHHSLGGQYGVQGFPTIKIFGSNKNRPEDYQGGRTGEAIVDAALSALRQLVKD
modifications: left off: small tags and cut ends
Take B5: in experiment [5], the “reduction of MICA disulfide bond” value is listed as “no activity”.

B6: C39S: C39S mutant of ERp5 fragment 1-118 (protein)
chain: LYSSSDDVIELTPSNFNREVIQSDSLWLVEFYAPWCGHSQRLTPEWKKAATALKDVVKVGAVDADKHHSLGGQYGVQGFPTIKIFGSNKNRPEDYQGGRTGEAIVDAALSALRQLVKD
modifications: left off: small tags and cut ends
Turning to B6, the “reduction of MICA disulfide bond” value in [5] is recorded as “formed a trapped disulfide-linked intermediate”. Moreover, in [11], the “activity on MICA α3 domain” value is on record as “reduces the MICA α3 disulfide bond”.

B7: ERp51-118: recombinant N-terminal thioredoxin-like domain fragment of ERp5, residues 1-118 (protein)
chain: LYSSSDDVIELTPSNFNREVIQSDSLWLVEFYAPWCGHCQRLTPEWKKAATALKDVVKVGAVDADKHHSLGGQYGVQGFPTIKIFGSNKNRPEDYQGGRTGEAIVDAALSALRQLVKD
modifications: left off: small tags and cut ends
Regarding B7, the “reduction of MICA disulfide bond” value in experiment [5] is given as “partially reduced”.
